B1: Importin subunit alpha-3 (Homo sapiens), O00629 (parent)
chain: MADNEKLDNQRLKNFKNKGRDLETMRRQRNEVVVELRKNKRDEHLLKRRNVPHEDICEDSDIDGDYRVQNTSLEAIVQNASSDNQGIQLSAVQAARKLLSSDRNPPIDDLIKSGILPILVHCLERDDNPSLQFEAAWALTNIASGTSEQTQAVVQSNAVPLFLRLLHSPHQNVCEQAVWALGNIIGDGPQCRDYVISLGVVKPLLSFISPSIPITFLRNVTWVMVNLCRHKDPPPPMETIQEILPALCVLIHHTDVNILVDTVWALSYLTDAGNEQIQMVIDSGIVPHLVPLLSHQEVKVQTAALRAVGNIVTGTDEQTQVVLNCDALSHFPALLTHPKEKINKEAVWFLSNITAGNQQQVQAVIDANLVPMIIHLLDKGDFGTQKEAAWAISNLTISGRKDQVAYLIQQNVIPPFCNLLTVKDAQVVQVVLDGLSNILKMAEDEAETIGNLIEECGGLEKIEQLQNHENEDIYKLAYEIIDQFFSSDDIDEDPSLVPEAIQGGTFGFNSSANVPTEGFQF
partner: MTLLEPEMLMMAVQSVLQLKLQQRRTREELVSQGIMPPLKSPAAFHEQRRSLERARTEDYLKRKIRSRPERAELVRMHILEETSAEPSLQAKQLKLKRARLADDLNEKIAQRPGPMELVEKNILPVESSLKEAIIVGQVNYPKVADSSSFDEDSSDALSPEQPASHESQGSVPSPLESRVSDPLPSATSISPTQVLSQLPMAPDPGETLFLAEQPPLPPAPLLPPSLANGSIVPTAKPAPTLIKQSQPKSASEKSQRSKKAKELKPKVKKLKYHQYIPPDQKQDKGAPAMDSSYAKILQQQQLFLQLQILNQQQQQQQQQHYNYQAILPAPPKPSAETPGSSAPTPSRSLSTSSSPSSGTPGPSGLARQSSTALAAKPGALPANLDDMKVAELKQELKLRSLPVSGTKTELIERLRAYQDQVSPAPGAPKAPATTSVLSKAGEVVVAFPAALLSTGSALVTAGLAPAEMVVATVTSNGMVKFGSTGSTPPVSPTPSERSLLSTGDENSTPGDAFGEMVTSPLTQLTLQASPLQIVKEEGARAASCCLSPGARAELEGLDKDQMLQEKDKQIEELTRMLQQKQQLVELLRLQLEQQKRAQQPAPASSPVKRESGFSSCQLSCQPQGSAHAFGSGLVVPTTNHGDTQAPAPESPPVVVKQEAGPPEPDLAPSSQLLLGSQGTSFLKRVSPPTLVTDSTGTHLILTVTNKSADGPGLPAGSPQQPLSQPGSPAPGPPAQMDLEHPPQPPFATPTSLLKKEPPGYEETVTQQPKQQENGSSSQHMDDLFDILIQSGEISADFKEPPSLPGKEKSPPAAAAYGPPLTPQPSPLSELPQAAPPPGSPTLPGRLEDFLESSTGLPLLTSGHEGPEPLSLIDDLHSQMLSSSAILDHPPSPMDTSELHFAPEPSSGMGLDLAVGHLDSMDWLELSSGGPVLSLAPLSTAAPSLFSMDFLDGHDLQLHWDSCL
B2: Myocardin-related transcription factor A (Mus musculus), Q8K4J6 (parent)
chain: B1 partner

Variants of: B1
Details: with mrtfa_mouse Mrtfa
For W390A;N394A, the “effect of a mutation on the interaction” value was “decreasing interaction strength”. In the case of W179A;N183A, the “effect of a mutation on the interaction” value is reported as “decreasing interaction strength”. With W179A;N183A;W390A;N394A the “effect of a mutation on the interaction” value was “decreasing interaction strength”.

Variants of: B2
Details: with ima3_human KPNA4, O00629
In the case of K62A;R63A;K64A;K95A;L96A;K97A, the “effect of a mutation on the interaction” value is reported as “disrupting interaction strength”. K95A;L96A;K97A was tested, and the “effect of a mutation on the interaction” value was “decreasing interaction strength”. With K62A;R63A;K64A the “effect of a mutation on the interaction” value was “decreasing interaction strength”.

Variants of: B2
Details: with imb1_human KPNB1, Q14974
imb1_human KPNB1, Q14974, sequence (Q14974 whole entry): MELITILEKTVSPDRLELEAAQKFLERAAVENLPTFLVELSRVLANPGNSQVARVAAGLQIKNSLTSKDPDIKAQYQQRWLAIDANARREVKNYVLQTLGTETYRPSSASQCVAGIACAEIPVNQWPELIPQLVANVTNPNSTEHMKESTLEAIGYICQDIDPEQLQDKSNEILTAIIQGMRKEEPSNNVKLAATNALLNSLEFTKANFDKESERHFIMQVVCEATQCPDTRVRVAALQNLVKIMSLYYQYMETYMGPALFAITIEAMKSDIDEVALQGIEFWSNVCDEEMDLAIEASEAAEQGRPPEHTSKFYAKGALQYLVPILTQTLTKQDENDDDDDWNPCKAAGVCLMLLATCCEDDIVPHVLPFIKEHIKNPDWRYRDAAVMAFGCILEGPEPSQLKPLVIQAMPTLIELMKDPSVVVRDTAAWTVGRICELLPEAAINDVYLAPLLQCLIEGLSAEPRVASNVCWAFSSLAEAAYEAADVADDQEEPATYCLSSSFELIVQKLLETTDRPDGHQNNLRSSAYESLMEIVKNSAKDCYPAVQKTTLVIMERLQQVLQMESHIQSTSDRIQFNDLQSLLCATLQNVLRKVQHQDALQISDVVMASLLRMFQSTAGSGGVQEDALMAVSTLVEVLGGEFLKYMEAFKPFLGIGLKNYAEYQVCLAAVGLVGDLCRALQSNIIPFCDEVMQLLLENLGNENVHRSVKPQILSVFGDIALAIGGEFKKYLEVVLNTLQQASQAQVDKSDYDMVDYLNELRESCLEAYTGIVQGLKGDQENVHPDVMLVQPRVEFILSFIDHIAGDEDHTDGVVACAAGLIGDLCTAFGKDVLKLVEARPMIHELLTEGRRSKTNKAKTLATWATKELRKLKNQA
For K95A;L96A;K97A, the “effect of a mutation on the interaction” value was “disrupting interaction strength”. K62A;R63A;K64A was tested, and the “effect of a mutation on the interaction” value was “decreasing interaction strength”.
